Results as given in IntAct's records for PubMed 17563362.

B1: CAP-Gly domain-containing linker protein 1 (Homo sapiens), P30622-2 (parent)
chain: MSMLKPSGLKAPTKILKPGSTALKTPTAVVAPVEKTISSEKASSTPSSETQEEFVDDFRVGERVWVNGNKPGFIQFLGETQFAPGQWAGIVLDEPIGKNDGSVAGVRYFQCEPLKGIFTRPSKLTRKVQAEDEANGLQTTPASRATSPLCTSTASMVSSSPSTPSNIPQKPSQPAAKEPSATPPISNLTKTASESISNLSEAGSIKKGERELKIGDRVLVGGTKAGVVRFLGETDFAKGEWCGVELDEPLGKNDGAVAGTRYFQCQPKYGLFAPVHKVTKIGFPSTTPAKAKANAVRRVMATTSASLKRSPSASSLSSMSSVASSVSSRPSRTGLLTETSSRYARKISGTTALQEALKEKQQHIEQLLAERDLERAEVAKATSHVGEIEQELALARDGHDQHVLELEAKMDQLRTMVEAADREKVELLNQLEEEKRKVEDLQFRVEEESITKGDLEVATVSEKSRIMELEKDLALRVQEVAELRRRLESNKPAGDVDMSLSLLQEISSLQEKLEVTRTDHQREITSLKEHFGAREETHQKEIKALYTATEKLSKENESLKSKLEHANKENSDVIALWKSKLETAIASHQQAMEELKVSFSKGLGTETAEFAELKTQIEKMRLDYQHEIENLQNQQDSERAAHAKEMEALRAKLMKVIKEKENSLEAIRSKLDKAEDQHLVEMEDTLNKLQEAEIKVKELEVLQAKCNEQTKVIDNFTSQLKATEEKLLDLDALRKASSEGKSEMKKLRQQLEAAEKQIKHLEIEKNAESSKASSITRELQGRELKLTNLQENLSEVSQVKETLEKELQILKEKFAEASEEAVSVQRSMQETVNKLHQKEEQFNMLSSDLEKLRENLADMEAKFREKDEREEQLIKAKEKLENDIAEIMKMSGDNSSQLTKMNDELRLKERDVEELQLKLTKANENASFLQKSIEDMTVKAEQSQQEAAKKHEEEKKELERKLSDLEKKMETSHNQCQELKARYERATSETKTKHEEILQNLQKTLLDTEDKLKGAREENSGLLQELEELRKQADKAKAAQTAEDAMQIMEQMTKEKTETLASLEDTKQTNAKLQNELDTLKENNLKNVEELNKSKELLTVENQKMEEFRKEIETLKQAAAQKSQQLSALQEENVKLAEELGRSRDEVTSHQKLEEERSVLNNQLLEMKKRESKFIKDADEEKASLQKSISITSALLTEKDAELEKLRNEVTVLRGENASAKSLHSVVQTLESDKVKLELKVKNLELQLKENKRQLSSSSGNTDTQADEDERAQESQIDFLNSVIVDLQRKNQDLKMKVEMMSEAALNGNGDDLNNYDSDDQEKQSKKKPRLFCDICDCFDLHDTEDCPTQAQMSEDPPHSTHHGSRGEERPYCEICEMFGHWATNCNDDETF

Variants of: B1
Details: with mare1_human MAPRE1, Q15691
mare1_human MAPRE1, Q15691, sequence (Q15691 whole entry): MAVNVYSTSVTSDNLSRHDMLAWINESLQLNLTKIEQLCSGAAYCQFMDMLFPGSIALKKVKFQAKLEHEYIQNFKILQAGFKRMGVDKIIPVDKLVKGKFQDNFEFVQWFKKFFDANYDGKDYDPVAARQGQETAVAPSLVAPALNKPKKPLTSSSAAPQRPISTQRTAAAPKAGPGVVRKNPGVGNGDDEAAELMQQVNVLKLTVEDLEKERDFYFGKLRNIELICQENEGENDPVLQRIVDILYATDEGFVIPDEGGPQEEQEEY

Variant | effect of a mutation on the interaction
K252A | disrupting interaction strength
K277A | decreasing interaction strength
K224A | disrupting interaction strength

Variants of: B1
Details: with tba1a_human TUBA1A

Variant | effect of a mutation on the interaction
N253D | decreasing interaction strength
N253A | decreasing interaction strength
